B1: FAM189A2 (parent)
chain: CALNALTTTVCLVAAALRYLQIFA
B2: ZNF511 (parent)
chain: EPLPVERDPAAGAAPFRFVARPVR

Variants of: B1
Assay: protein stability index of a GFP-peptide fusion (GPS, HEK-293T) (PSI 1-6); higher = more stable
Settings: c terminus: a fixed tail appended
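Note: lentivirally expressed fusions sorted by FACS into six bins by GFP to DsRed ratio, PSI derived from sequencing read proportions per bin multiplied by bin number.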

Going from CALNALTPTVCLVAAALRYLQIFA [T8P] to CALNALTNTVCLVAAALRYLQIFA [T8N], the protein stability index rises from 2.92 to 3.77.

First: CALNALTITVCLVAAALRYLQIFA [T8I]
Second: CALNILTTTVCLVAAALRYLQIFA [A5I]
The protein stability index of the first is lower: 3.39 for the first, 3.46 for the second.

Going from CALNYLTTTVCLVAAALRYLQIFA [A5Y] to CALNTLTTTVCLVAAALRYLQIFA [A5T], the protein stability index falls from 3.68 to 3.6.

Compared with CALNQLTTTVCLVAAALRYLQIFA [A5Q], CALNALTTTVCLGAAALRYLQIFA [V13G] is lower in protein stability index: 3.79 for the first, 3.15 for the second.

Compared with CALNALTTTVCLRAAALRYLQIFA [V13R], CALNALTTTVCLMAAALRYLQIFA [V13M] is lower in protein stability index: 3.73 for the first, 2.25 for the second.

Compared with CALNALTTTVCLFAAALRYLQIFA [V13F], CALNALTTTVCLKAAALRYLQIFA [V13K] is lower in protein stability index: 3.5 for the first, 2.78 for the second.

Going from CALNALTTTVCLAAAALRYLQIFA [V13A] to CALNALTTTVCLLAAALRYLQIFA [V13L], the protein stability index falls from 2.99 to 2.8.

Going from CALNALTTTVCLYAAALRYLQIFA [V13Y] to CALNALTTTVCKVAAALRYLQIFA [L12K], the protein stability index falls from 2.68 to 2.3.

First: CALNALTTTVCWVAAALRYLQIFA [L12W]
Second: CALDALTTTVCLVAAALRYLQIFA [N4D]
The protein stability index of the first is higher: 3.65 for the first, 2.85 for the second.

First: CALTALTTTVCLVAAALRYLQIFA [N4T]
Second: CALNALTTTVCLVAAYLRYLQIFA [A16Y]
The protein stability index of the first is lower: 2.17 for the first, 2.27 for the second.

Compared with CALNALTTTVCLVAATLRYLQIFA [A16T], CALNALTTTVCLVAALLRYLQIFA [A16L] is higher in protein stability index: 1.94 for the first, 3.09 for the second.

Compared with CALNALTTTVCLVAAWLRYLQIFA [A16W], CAANALTTTVCLVAAALRYLQIFA [L3A] is higher in protein stability index: 1.55 for the first, 3.13 for the second.

First: CAFNALTTTVCLVAAALRYLQIFA [L3F]
Second: CAQNALTTTVCLVAAALRYLQIFA [L3Q]
The protein stability index of the first is higher: 3.52 for the first, 3 for the second.

Compared with CAVNALTTTVCLVAAALRYLQIFA [L3V], CAKNALTTTVCLVAAALRYLQIFA [L3K] is lower in protein stability index: 2.62 for the first, 1.92 for the second.

First: PALNALTTTVCLVAAALRYLQIFA [C1P]
Second: CALNALWTTVCLVAAALRYLQIFA [T7W]
The protein stability index of the first is lower: 1.11 for the first, 2.89 for the second.

First: CALNALITTVCLVAAALRYLQIFA [T7I]
Second: CALNALPTTVCLVAAALRYLQIFA [T7P]
The protein stability index of the first is higher: 3.6 for the first, 3.27 for the second.

Compared with CALNALRTTVCLVAAALRYLQIFA [T7R], CALNALSTTVCLVAAALRYLQIFA [T7S] is higher in protein stability index: 2.34 for the first, 2.85 for the second.

First: CALNALYTTVCLVAAALRYLQIFA [T7Y]
Second: CALNALTTTVCLVAAALRYLQIFE [A24E]
The protein stability index of the first is higher: 3.46 for the first, 2.8 for the second.

Compared with CALNALTTTVCLVAAALRYLQIFM [A24M], CALNALTTTVCLVAAALRYLQIFY [A24Y] is higher in protein stability index: 2.65 for the first, 3.32 for the second.

Going from CALNALTTTVCLVAAALRYLQIFC [A24C] to CALNALTTTVCLVAAALRYLQIFI [A24I], the protein stability index falls from 3.96 to 2.19.

Going from CALNALTTTVCLVAAALRYLQIFS [A24S] to CGLNALTTTVCLVAAALRYLQIFA [A2G], the protein stability index falls from 4.25 to 3.74.

First: CMLNALTTTVCLVAAALRYLQIFA [A2M]
Second: CWLNALTTTVCLVAAALRYLQIFA [A2W]
The protein stability index of the first is higher: 2.77 for the first, 2.26 for the second.

Compared with CILNALTTTVCLVAAALRYLQIFA [A2I], CALNALTTTVCLVAAAPRYLQIFA [L17P] is higher in protein stability index: 2.77 for the first, 2.91 for the second.

Going from CALNALTTTVCLVAAAKRYLQIFA [L17K] to CALNALTTTVCLVAAAERYLQIFA [L17E], the protein stability index falls from 3.29 to 3.03.

Going from CALNALTTTVCLVAAANRYLQIFA [L17N] to CALNALTTTVCLVAAAHRYLQIFA [L17H], the protein stability index falls from 3.87 to 2.72.

Going from CALNAFTTTVCLVAAALRYLQIFA [L6F] to CALNAITTTVCLVAAALRYLQIFA [L6I], the protein stability index rises from 1.13 to 1.47.

Compared with CALNAYTTTVCLVAAALRYLQIFA [L6Y], CALNALTTTVPLVAAALRYLQIFA [C11P] is lower in protein stability index: 3.27 for the first, 2.3 for the second.

Compared with CALNALTTTVCLVAAALRYGQIFA [L20G], CALNALTTCVCLVAAALRYLQIFA [T9C] is lower in protein stability index: 2.41 for the first, 2.34 for the second.

Going from CALNALTTNVCLVAAALRYLQIFA [T9N] to CALNALTTQVCLVAAALRYLQIFA [T9Q], the protein stability index rises from 2.79 to 3.59.

Compared with CALNALTTHVCLVAAALRYLQIFA [T9H], CALNALTTTVCLVAQALRYLQIFA [A15Q] is lower in protein stability index: 2.19 for the first, 2.05 for the second.

Going from CALNALTTTVCLVAGALRYLQIFA [A15G] to CALNALTTTVCLVAHALRYLQIFA [A15H], the protein stability index falls from 2.9 to 2.6.

Going from CALNALTTTVCLVAAALRALQIFA [Y19A] to CALNALTTTVCLVAAALRHLQIFA [Y19H], the protein stability index falls from 3.25 to 1.98.

Going from CALNALTTTVCLVAAALRKLQIFA [Y19K] to CALNALTTTVCLVAAALRWLQIFA [Y19W], the protein stability index rises from 2.19 to 3.75.

Compared with CALNALTTTVCLVAAALRELQIFA [Y19E], CALNALTTTVCLVVAALRYLQIFA [A14V] is lower in protein stability index: 3.73 for the first, 1.9 for the second.

First: CALNALTTTVCLVLAALRYLQIFA [A14L]
Second: CALNALTTTVCLVEAALRYLQIFA [A14E]
The protein stability index of the first is higher: 3.6 for the first, 3.46 for the second.

Compared with CALNALTTTVCLVTAALRYLQIFA [A14T], CALNALTTTVCLVAAALCYLQIFA [R18C] is higher in protein stability index: 3.07 for the first, 3.91 for the second.

Compared with CALNALTTTVCLVAAALWYLQIFA [R18W], CALNALTTTVCLVAAALQYLQIFA [R18Q] is lower in protein stability index: 2.99 for the first, 2.72 for the second.

Going from CALNALTTTVCLVAAALRYLQIQA [F23Q] to CALNALTTTVCLVAAALRYLQIEA [F23E], the protein stability index falls from 4.3 to 3.61.

Going from CALNALTTTVCLVAAALRYLQICA [F23C] to CALNALTTTVCLVAAALRYLQIKA [F23K], the protein stability index falls from 3.26 to 2.94.

Compared with CALNALTTTVCLVAAALRYLTIFA [Q21T], CALNALTTTVCLVAAALRYLAIFA [Q21A] is lower in protein stability index: 3.12 for the first, 3.09 for the second.

First: CALNALTTTVCLVAAALRYLYIFA [Q21Y]
Second: CALNALTTTVCLVAAALRYLRIFA [Q21R]
The protein stability index of the first is higher: 3.35 for the first, 1.72 for the second.

Compared with CALNALTTTHCLVAAALRYLQIFA [V10H], CALNALTTTCCLVAAALRYLQIFA [V10C] is lower in protein stability index: 3.15 for the first, 1.42 for the second.

Compared with CALNALTTTDCLVAAALRYLQIFA [V10D], CALNALTTTFCLVAAALRYLQIFA [V10F] is lower in protein stability index: 4.46 for the first, 1.53 for the second.

First: CALNALTTTACLVAAALRYLQIFA [V10A]
Second: CALNALTTTVCLVAAALRYLQGFA [I22G]
The protein stability index of the first is lower: 2.46 for the first, 3.11 for the second.

First: CALNALTTTVCLVAAALRYLQTFA [I22T]
Second: CALNALTTTVCLVAAALRYLQVFA [I22V]
The protein stability index of the first is lower: 2.33 for the first, 2.72 for the second.

Variants of: B2
Assay: as above
Settings: c terminus: a fixed tail appended

First: EPLPVERDPGAGAAPFRFVARPVR [A10G]
Second: EPLPVERDPCAGAAPFRFVARPVR [A10C]
The protein stability index of the first is higher: 2.17 for the first, 1.88 for the second.

Compared with EPLPVERDPFAGAAPFRFVARPVR [A10F], EPLPVERDPKAGAAPFRFVARPVR [A10K] is higher in protein stability index: 1.64 for the first, 1.72 for the second.

Source: the supplement of paper PMC10567573
